Source: patent US20130309177A1

Key:
[1] = target: somatostatin receptors on AR42J cells (rat); experiment: apparent IC50; competition with ^111In-DTPA-octreotide on AR42J cells, 3 h at RT
[2] = target: gastrin-releasing peptide receptor on PC-3 cells (UniProt P30550); experiment: competition with ^125I-BBN on PC-3 cells, repeat experiment (250 to 2 nM competitor)
gastrin-releasing peptide receptor on PC-3 cells, sequence (P30550 whole entry): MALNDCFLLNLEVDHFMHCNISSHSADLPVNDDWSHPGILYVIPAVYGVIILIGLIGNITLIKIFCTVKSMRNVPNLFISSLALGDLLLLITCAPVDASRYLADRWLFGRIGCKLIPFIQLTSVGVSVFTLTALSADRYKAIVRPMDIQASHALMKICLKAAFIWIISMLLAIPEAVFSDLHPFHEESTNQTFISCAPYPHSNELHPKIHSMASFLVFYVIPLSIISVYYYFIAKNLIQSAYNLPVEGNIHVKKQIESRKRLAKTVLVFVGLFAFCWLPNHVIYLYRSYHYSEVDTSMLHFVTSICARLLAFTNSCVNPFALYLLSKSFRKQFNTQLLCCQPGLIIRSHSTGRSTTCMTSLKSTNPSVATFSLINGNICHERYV

somatostatin receptors on AR42J cells (rat), sequence (P30680 whole entry): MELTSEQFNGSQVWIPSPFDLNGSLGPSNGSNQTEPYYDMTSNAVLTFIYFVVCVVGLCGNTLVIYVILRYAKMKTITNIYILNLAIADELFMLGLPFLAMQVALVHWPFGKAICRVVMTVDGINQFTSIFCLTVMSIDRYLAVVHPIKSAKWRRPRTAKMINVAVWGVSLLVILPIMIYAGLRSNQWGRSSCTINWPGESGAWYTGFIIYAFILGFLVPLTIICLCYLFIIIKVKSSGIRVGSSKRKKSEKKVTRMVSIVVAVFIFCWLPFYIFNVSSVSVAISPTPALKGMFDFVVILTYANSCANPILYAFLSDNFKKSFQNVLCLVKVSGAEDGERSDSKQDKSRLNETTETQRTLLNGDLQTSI

Row | Substance | IC50 [1] [nM] | IC50 [2] [nM]
1 | ^115In-DTPA-octreotide (peptide) | 6.3 | 
2 | ^19F-IMP466 (Al^19F complex of IMP 466, NOTA-D-Phe-Cys-Phe-D-Trp-Lys-Thr-Cys-Throl) (peptide) | 3.6 | 
3 | commercially available BBN peptide |  | 24.4
4 | ^69Ga-IMP466 (gallium complex of IMP 466) (peptide) | 13 | 
